Reference: publication PMC4878091

Legend:
PFHR9 NC1 domains = assay: SEC
[1] = molecular target: recombinant collagen IV α112 protomer (r-Prot); assay: SEC

stoichiometry N (PFHR9 NC1 domains) | stoichiometry N [1] | Substance
6 |  | PFHR9 NC1 domains
 | 2 | recombinant collagen IV α112 protomer (r-Prot) (complex)
